Test [1] concerns the target CREB pKID αB peptide pKID αB helix (UniProt P16220). Conditions: cited from earlier work.
For test [2], the target named is Mouse CBP KIX (residues 586-683) (mouse) (UniProt P45481). Kind of test: NMR titration.
For test [3] the target is unchanged. The test can be described thus: ITC. In general terms: ITC needs no label: the signal is the heat of the interaction.

For the substance CBP KIX (from UniProt P45481), in test [1], the dissociation constant Kd (in general, a measure of binding affinity in units of concentration) is 80 µM.

In test [2], “CRTC1-MAML2 TAD1 polypeptide spanning residues 150-190” came in with an equilibrium dissociation constant (Kd) of 21 µM. For the same substance, the Kd2 (site 2, two-site model) in test [3] was 370 µM.

These data come from article PMC4564341.
